Data reported in US20260286322A1, “PROTEIN TYROSINE P[…] DOMAIN PEPTIDE DIMER FOR NERVOUS SYSTEM REPAIR” (NervGen Pharma Corp., priority 2023, published 2026).
Ends that are not written are not given here.

Tests used:
[1] = In vitro stability in physiological buffer (Hanks Balanced Salt Solution, HBSS); assay type: physicochemical; conditions: 30 minutes incubation, 37° C., 1.6 μM
Description: (§1) Stability of Compound 7 (human variant) in physiological buffer (Hanks Balanced Salt Solution, HBSS) and in plasma was evaluated in comparison with Compound 3.
(§2) Compound stability was defined as % recovery of the compound after 5 min, 15 min, and 30 min of incubation in the presence of corresponding plasma.
(§3) 200 μL of 1.6 μM Compound 3 and Compound 7 solutions were incubated in the matrix (Hank's Balanced Salt Solution or plasma) at 37° C. for 0, 5, 15, or 30 minutes. The incubation was followed by addition of 200 μL acetonitrile, vortexing and subsequent acidification with 45 μL of pure acetic acid. After additional vortexing, the resulting mixture was centrifuged for 5 min at 14,000 rpm and the supernatant was collected for analysis.
(§4) Determination of the Compound 3 or Compound 7 levels in the supernatant samples prepared as described above was performed using an LC-MS/MS method as follows: 40 μL of 5 μM Compound 7 in 10% acetic acid aqueous solution was added to 160 μL of the supernatant. […]
(§5) Percentages of Compound 3 and Compound 7 recovery after 0 minutes (at the start of the experiment), 5 minutes, 15 minutes, and 30 minutes incubation time points were calculated by dividing the corresponding peak areas by the peak area obtained from the samples prepared with no incubation (0 minutes of incubation time). […]

[2] = Self-assembly by negative stain transmission electron microscopy; assay type: physicochemical; conditions: for colloidal structures from self-assembly in isotonic saline (TEM): 20 mg/mL in 0.9% (w/v) sodium chloride; for colloidal structures from self-assembly in water (TEM): 20 mg/mL in sterile water
Description: The patterns of self-assembly of Compound 7 and Compound 3 were analyzed by negative stain transmission electron microscopy.
Compound 3 and Compound 7 were dissolved in sterile water or in 0.9% (w/v) sodium chloride in sterile water to obtain a 20 mg/mL solution. Formvar/carbon coated grids were exposed to […] drops of the Compound 3 or Compound 7 solutions for approximately 1 minute, blotted and then exposed to […] drops of sterile water for 10 seconds, blotted again and then stained with 2% (w/v) aqueous uranyl acetate for 30 seconds, The stained samples were exposed to […] drops of sterile water for 10 seconds and blotted dry prior to examination by transmission electron microscopy.

[3] = In vitro stability in human plasma; assay type: in vitro ADME; conditions: after 30 minutes of incubation, 37° C., 1.6 μM
Description: as §1, §2, §3, §4, §5

[4] = In vitro stability in dog plasma; assay type: in vitro ADME; conditions: after 30 minutes of incubation, 37° C., 1.6 μM
Description: as §1, §2, §3, §4, §5

[5] = In vitro stability in rat plasma; assay type: in vitro ADME; conditions: after 30 minutes of incubation, 37° C., 1.6 μM
Description: as §1, §2, §3, §4, §5

Substance | % recovery in HBSS [1] | colloidal structures from self-assembly in isotonic saline (TEM) [2] | colloidal structures from self-assembly in water (TEM) [2] | recovery rate in human plasma [3] | recovery rate in dog plasma [4] | recovery rate in rat plasma [5]
TAT-Cys-human PTPRS wedge domain homodimer (GRKKRRQRRRCDMAEHTERLKANDSLKLSQEYESI; also: disulfide homodimer) [Compound 7] | 90% | larger-in-size helical colloidal particles | rod-shaped nanostructures | 99% | 100% | 92%
TAT-Cys-PTPRS (GRKKRRQRRRCDMAEHTERLKANDSLKLSQEYESI) [Compound 3] | about 42% | amyloid-like fibrillar meshwork | rod-shaped nanostructures | low stability | low stability | low stability
